Values quoted from earlier work as cited in paper PMC10092198.

Target: C3b (mC3b) C3b (Mus musculus) (UniProt P01027)
Chain of UniProt P01027 (P01027 566-669): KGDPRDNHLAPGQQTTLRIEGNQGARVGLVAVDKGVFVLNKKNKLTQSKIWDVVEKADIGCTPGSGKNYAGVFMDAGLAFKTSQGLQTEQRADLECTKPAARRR

Kd: 1 µM
Substance: Factor H (mFH) (from UniProt P06909)
